The record followed here is patent publication US20140147444A1 (published 2014).

First the molecules themselves.
B5: human OPGbp [143-317] (ligand, UniProt O14788 143-317, looked up)
chain: EKAMVDGSWLDLAKRSKLEAQPFAHLTINATDIPSGSHKVSLSSWYHDRGWAKISNMTFSNGKLIVNQDGFYYLYANICFRHHETSGDLATEYLQLMVYVTKTSIKIPSSHTLMKGGSTKYWSGNSEFHFYSINVGGFFKLRSGEEISIEVSNPSLLDPDQDATYFGAFKVRDID
notes: also called OPGL

Experiment [1] deals with B5. Description: SPR (BIAcore), immobilized OPGbp [143-317]. For orientation: Surface plasmon resonance follows binding to a sensor surface in real time, without labels.
Experiment [2] concerns the target B5. Description: SPR (BIAcore), OPGbp on CM5 chip. As to the method:
(§1) The binding constant (Kd), on rate constant (ka) and off rate constant (kd) for Fabs “AT” and “Y” and “AT” antibody were determined by surface plasmon resonance techniques (BIAcore, Pharmacia, Piscataway, N.J.) and the results are shown in Table II. Fabs were prepared as described in Example 4 and “AT” antibody prepared as described in Example 7. OPGbp was immobilized on a CM5-chip by standard amine coupling. The Kd and rate constants were determined by BIAEVALUATION 3.0 software (Pharmacia).

Experiment [3] concerns the target B5. Description: cell-based or functional assay.
Experiment [4] has as its target B5. Description: FRET competition, inhibition of OPGbp-Eu binding to sODAR-Fc. How it is done: (§2) A 1 hour preincubation with OPGbp was added for increased sensitivity. A soluble extracellular domain of human ODAR was constructed as a fusion polypeptide with an amino terminal FLAG tag and a carboxy terminal human Fc region. The Fc region is recognized and bound by a polyclonal goat anti-human Fc specific allophycocyanin (APC) which is detected by […] at 665 nm. […] Binding of OPGbp to ODAR in this assay triggers a fluorescent energy transfer and is highly sensitive for competition curves. A decrease in the A665/A620 absorbance ratio indicates inhibition of OPGbp binding to ODAR.
(§3) The Fab “Y” clone 1B4 was from the predominant 9 member pattern from one 96-well plate (all with same amino acid sequence) from the optimized plated OPGbp screen using a 1 μM OPGbp elution for 90 min. […] Similar IC50's were obtained with the duplicate preparations “A” and “B”.

Experiment [5] has as its target B5. Description: FRET competition, inhibition of OPGbp-Eu binding to sODAR-Fc, in PBS. How it is done: as §2, §3
The target in experiment [6] is B5. Description: FRET competition, inhibition of OPGbp-Eu binding to sODAR-Fc, in TBS. As to the method:
as §2, §3

For experiment [7], the target named is B5. Description: SPR (BIAcore), OPGbp on CM5 chip (147 RU). As to the method: as §1
Experiment [8] deals with B5. Description: SPR (BIAcore), OPGbp on CM5 chip (47 RU). As to the method:
as §1

The next experiment deals with T1, murine OPGbp[158-316] (murine, UniProt O35235 158-316).
T1 sequence: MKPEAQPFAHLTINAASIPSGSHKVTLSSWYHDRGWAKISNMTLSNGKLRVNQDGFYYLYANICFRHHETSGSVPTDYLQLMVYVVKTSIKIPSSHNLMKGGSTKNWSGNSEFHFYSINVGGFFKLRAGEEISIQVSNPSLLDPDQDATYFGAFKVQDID
Description: EIA on plates coated with murine OPGbp[158-316]. As to the method:
After overnight incubation, the protein solutions were removed from the plate and 200 μl of 5% Chicken Serum (Gibco/BRL Cat#16110-082) in PBST (PBS plus 0.05% Tween 20) was added to each well of the plate and plates were incubated at room temperature (RT) for 90 min with agitation. After incubation and blocking, plates were washed 4 times with 1×K-P wash solution in dH₂O (Cat#50-63-00, Kirkegaard & Perry Laboratories) and dried. […] Plates were incubated for three hours at room temperature with agitation, washed four times with 1× K-P wash solution and dried. Goat anti-human IgG (Fc) (Jackson ImmunoResearch, Cat#109-036-098) was diluted 1:5000 in 5% Chicken Serum in PBST and 100 μl was added to each well. […] 100 μl of undiluted ABTS substrate (Kirkegaard & Perry; Cat#50-66-00) was added to each well and the dish was incubated at room temperature until sufficient blue-green color developed. Color development was stopped by addition of 100 μl 1% SDS. Quantitation of color development was performed using a microtiter plate reader with detection at 405 nm.

For experiment [9], the target named is B5. Description: SPR (BIAcore), immobilized OPGbp [143-317]. The source holds these as a separate data set.
Experiment [10] deals with B5. Description: SPR (BIAcore), OPGbp on CM5 chip (80 RU). How it is done:
as §1

Experiment [11] deals with B5. Description: phage ELISA on plated OPGbp [143-317]. For orientation: ELISA stands for enzyme-linked immunosorbent assay.
Experiment [12] concerns the target T2, soluble ODAR-Fc fusion (FLAG-human ODAR extracellular domain-human Fc) (human, UniProt Q9Y6Q6 30-212).
T2 construct: extracellular domain; also called sODAR-Fc; not shown: amino terminal FLAG tag; carboxy terminal human Fc region
T2 sequence (looked up): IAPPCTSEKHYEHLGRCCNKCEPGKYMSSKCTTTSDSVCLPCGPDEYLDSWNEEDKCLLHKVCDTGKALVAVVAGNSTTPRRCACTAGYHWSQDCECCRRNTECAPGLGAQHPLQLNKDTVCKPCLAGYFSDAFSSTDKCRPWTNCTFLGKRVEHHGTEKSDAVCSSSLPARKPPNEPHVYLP
Description: FRET competition, unlabelled OPGbp against OPGbp-Eu on sODAR-Fc, in PBS (positive control). As to the method:
as §2, §3

Experiment [13] deals with T2, soluble ODAR-Fc fusion (FLAG-human ODAR …). Description: FRET competition, unlabelled OPGbp against OPGbp-Eu on sODAR-Fc, in TBS (positive control). As to the method:
as §2, §3

Values joined by “and” are separate entries in the source; they are usually repeats but may differ in a detail not shown here. Identical values can stand only once.

B1: Fab “AT” (Fab, V domains shown)
VH: QVQLVQSGAEVRKPGASVKVSCKASGYDFSNYAIHWVRQAPGQRLEWMGWINAGNGNTKFSQKFQGRITVTRDTAASTAYMELRSLRSEDTAVYYCARDSSNMVRGIIIAYYFDYWGQGTLVTVSS
VL: EIVMTQSPSSLSASVGDRVTITCRASQSISRYLNWYQLKPGKAPRLLIYGASSLQSGVPSRFSGSGSGAEFTLTISSLQPEDIATYYCQHTRAFGQGTKVEIKR
notes: Soluble Fab from E. coli periplasm purified on Talon resin; also called soluble Fab “AT”; Fab pattern “AT”
B1: the koff (usually the first-order rate constant of dissociation) with human OPGbp [143-317] [1] turned out to be 0.284 s⁻¹; with human OPGbp [143-317] [2], 0.31 s⁻¹. Also, binding with human OPGbp [143-317] [2] was put at a Kd of 140 nM. For the same molecule, in the experiment with human OPGbp [143-317] [2], the kon (in general, the rate constant with which the complex forms) worked out at 2.2e+06 M⁻¹ s⁻¹. Besides, the “RAW cell assay (TRAP, OD405), IC50” value with human OPGbp [143-317] [3] is 15 µg/ml and 300 nM. Also, the “murine bone marrow assay, TRAP activity in solution (pNPP), 50% decrease (IC50)” value in the experiment with human OPGbp [143-317] [3] was determined as 57.8 nM. For the same molecule, the IC50 (in general, the midpoint of a concentration-inhibition curve) in the experiment with human OPGbp [143-317] [4] was 550 nM; with human OPGbp [143-317] [5], 440 nM; with human OPGbp [143-317] [6], 354 nM.

B2: Fab “Y” (Fab, V domains shown)
VH: EVQLVQSGAEVRKPGASVKVSCKASGYDFSNYAIHWVRQAPGQRLEWMGWINAGNGNTKFSQKFQGRITVTRDTAASTAYMELRSLRSEDTAVYYCARDSSNMVRGIIIAYYFDYWGQGTLVTVSS
VL: EIVLTQSPATLSFSPGERATLSCRASQSVGSYLAWYQQRPGQAPRPLIYDATNRATGIPTRFSGSGSGTDFTLTISSLEPEDFATYYCQHRRTFGRGTKLEIKR
notes: also called soluble Fab “Y”; Fab pattern “Y”
For B2, in the experiment with human OPGbp [143-317] [2], the Kd – broadly, the equilibrium constant for the complex coming apart – is 594 nM; the koff was determined as 0.00591 s⁻¹; the on-rate (kon) was 9440 M⁻¹ s⁻¹. In the experiment with human OPGbp [143-317] [4], the half-inhibitory concentration (IC50) came to 6000 nM. Besides, the IC50 in the experiment with human OPGbp [143-317] [6] was determined as 4100 nM.

B3: “AT” antibody (full-length human IgG1) (antibody, V domains shown)
VH: QVQLVQSGAEVRKPGASVKVSCKASGYDFSNYAIHWVRQAPGQRLEWMGWINAGNGNTKFSQKFQGRITVTRDTAASTAYMELRSLRSEDTAVYYCARDSSNMVRGIIIAYYFDYWGQGTLVTVSS
VL: EIVMTQSPSSLSASVGDRVTITCRASQSISRYLNWYQLKPGKAPRLLIYGASSLQSGVPSRFSGSGSGAEFTLTISSLQPEDIATYYCQHTRAFGQGTKVEIKR
notes: Expressed in CHO cells; also called “AT” Ab; not shown: human IgG1 CH1, hinge, CH2 and CH3
With B3, in the experiment with human OPGbp [143-317] [7], binding was characterised by a dissociation constant (Kd) of 0.42 nM, the koff turned out to be 0.0024 s⁻¹ and the association rate constant (kon) stood at 5.7e+06 M⁻¹ s⁻¹. Moreover, in the experiment with human OPGbp [143-317] [3], the “RAW cell assay, IC50, preparation “AT”405” value is 3 ug/ml and 20.1 nM; the “RAW cell assay, IC50, preparation “AT”406” value was 60.3 nM and 9 ug/ml; the “RAW cell assay, IC50, preparation “AT”407” value was 21.4 nM and 3.2 ug/ml; the “bone marrow assay, inhibition of TRAP formation, IC50, preparation “AT”406” value is 2.35 µg/ml and 14.4 nM. Moreover, in the experiment with human OPGbp [143-317] [3], the “murine bone marrow assay, IC50, preparation “AT”405” value was 2.15 ug/ml and 14.4 nM; the “murine bone marrow assay, IC50, preparation “AT”407” value is 1.85 ug/ml and 12.5 nM. Besides, in the experiment with human OPGbp [143-317] [8], binding was characterised by a dissociation constant (Kd) of 0.43 nM, the koff was 0.0031 s⁻¹ and the kon was determined as 7.3e+06 M⁻¹ s⁻¹. Moreover, in the experiment with murine OPGbp[158-316], the binding result was “no binding (tested: 2 ug/ml down to 1.953 ng/ml)”. For the same molecule, in the experiment with human OPGbp [143-317] [9], the Kd worked out at 1.18 nM, the koff was found to be 0.002 s⁻¹ and the kon was 1.7e+06 M⁻¹ s⁻¹. Moreover, in the experiment with human OPGbp [143-317] [10], the affinity, expressed as Kd, was 0.33 nM; the koff was determined as 0.0027 s⁻¹; the kon was 8.1e+06 M⁻¹ s⁻¹.

B4: Fab “S” (Fab, V domains shown)
VH: EVQLLESGGGLVQPGRSLRLSCAASGFTFDDYAMHWVRQAPGKGLEWVSGISWNSGRIGYADSVKGRFTISRDNAKNSLYLQMNSLRPEDTAFYYCAKGGSTSARYSSGWYYWGQGTLVTVSS
VL: QSVLTQPPSVSVSPGQTATITCSGDALPKQYVYWYRQKPGQAPLLVIYEDSERPSGIPERFSGSSSGTEVTLSISGVQAEDEADYYCQSTDSSGTYVVFGGGTKLTVLS
notes: also called Fab pattern “S”
With B4, in the experiment with human OPGbp [143-317] [11], the binding result was “binds”.

As to B5, the IC50 came out at 0.93 nM in [12] and 0.89 nM in experiment [13].
